Test results reported in IntAct's records for PubMed 21212807.

B1: TRAF family member-associated NF-kappa-B activator (Homo sapiens), Q92844 (parent)
chain: MDKNIGEQLNKAYEAFRQACMDRDSAVKELQQKTENYEQRIREQQEQLSLQQTIIDKLKSQLLLVNSTQDNNYGCVPLLEDSETRKNNLTLDQPQDKVISGIAREKLPKVRRQEVSSPRKETSARSLGSPLLHERGNIEKTFWDLKEEFHKICMLAKAQKDHLSKLNIPDTATETQCSVPIQCTDKTDKQEALFKPQAKDDINRGAPSITSVTPRGLCRDEEDTSFESLSKFNVKFPPMDNDSTFLHSTPERPGILSPATSEAVCQEKFNMEFRDNPGNFVKTEETLFEIQGIDPIASAIQNLKTTDKTKPSNLVNTCIRTTLDRAACLPPGDHNALYVNSFPLLDPSDAPFPSLDSPGKAIRGPQQPIWKPFPNQDSDSVVLSGTDSELHIPRVCEFCQAVFPPSITSRGDFLRHLNSHFNGET
partner: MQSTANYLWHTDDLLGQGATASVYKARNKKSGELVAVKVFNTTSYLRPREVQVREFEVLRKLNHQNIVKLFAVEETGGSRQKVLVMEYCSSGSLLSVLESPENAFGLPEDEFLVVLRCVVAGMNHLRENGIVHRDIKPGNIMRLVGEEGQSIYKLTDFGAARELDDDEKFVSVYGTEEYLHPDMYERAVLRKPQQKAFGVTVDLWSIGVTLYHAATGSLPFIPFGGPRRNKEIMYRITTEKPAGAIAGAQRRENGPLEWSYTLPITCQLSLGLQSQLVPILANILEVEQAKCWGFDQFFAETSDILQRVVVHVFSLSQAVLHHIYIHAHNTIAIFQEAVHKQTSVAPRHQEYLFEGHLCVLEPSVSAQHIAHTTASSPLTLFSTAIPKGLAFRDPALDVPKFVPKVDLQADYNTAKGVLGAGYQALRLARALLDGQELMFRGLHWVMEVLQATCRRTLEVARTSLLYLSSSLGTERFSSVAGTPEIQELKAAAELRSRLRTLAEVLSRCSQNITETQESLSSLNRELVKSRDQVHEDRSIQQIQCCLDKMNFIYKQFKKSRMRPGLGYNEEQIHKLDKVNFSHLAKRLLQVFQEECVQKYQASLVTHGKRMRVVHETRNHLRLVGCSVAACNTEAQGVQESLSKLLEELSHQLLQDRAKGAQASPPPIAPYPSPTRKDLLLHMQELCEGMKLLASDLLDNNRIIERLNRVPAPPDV

Variants of: B1
Settings: with ikke_human IKBKE

effect of a mutation on the interaction	Variant
increasing interaction	MDKNIGEQLNKAYEAFRQACMDRDSAVKELQQKTENYEQRIREQQEQLSLQQTIIDKLKSQLLLVNSTQDNNYGCVPLLEDSETRKNNLTLDQPQDKVISGIAREKLPKVRRQEVSSPRKETSARSLGSPLLHERGNIEKTFWDLKEEFHKICMLAKAQKDHLSKLNIPDTATETQCSVPIQCTDKTDKQEALFKPQAKDDINRGAPSITSVTPRGLCRDEEDTSFESLSKFNVKFPPMDNDSTFLHSTPERPGILSPATSEAVCQEKFNMEFRDNPGNFVRTEETLFEIQGIDPIASAIQNLKTTDKTKPSNLVNTCIRTTLDRAACLPPGDHNALYVNSFPLLDPSDAPFPSLDSPGKAIRGPQQPIWKPFPNQDSDSVVLSGTDSELHIPRVCEFCQAVFPPSITSRGDFLRHLNSHFNGET [K282R]
